The text below walks through data of PMC6803640, “Oligomeric state, hydrodynamic properties and target recognition of human Calcium and Integrin Binding protein 2 (CIB2)” (Scientific Reports, 2019).

What is called stoichiometry N is a count of units in the complex or per binding partner.

Values joined by “and” are separate entries in the source; they are usually repeats but may differ in a detail not shown here. Equal values may be shown once.

Data set [1] has as its target integrin αIIb peptide (Homo sapiens) (UniProt P08514). Description: SPR. Particulars: cited from earlier work.
Data set [2] concerns the target T1, human CIB2 (Homo sapiens, UniProt O75838).
T1 construct: made in house
T1 sequence (O75838 1-187): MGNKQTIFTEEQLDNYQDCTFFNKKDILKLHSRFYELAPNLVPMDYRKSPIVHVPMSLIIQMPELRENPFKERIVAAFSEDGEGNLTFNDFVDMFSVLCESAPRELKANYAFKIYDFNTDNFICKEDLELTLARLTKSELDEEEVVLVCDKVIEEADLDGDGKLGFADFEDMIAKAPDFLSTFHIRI
The data set is described as follows: SPR interaction of α7B peptides with immobilized CIB2. It is filed as binding. Particulars: His-CIB2 capture (7.5 µM peptide, or 230 nM–30 μM) and amine-coupled untagged CIB2 (7.5–30 µM); 1 mM Mg^2+, 2 mM Ca^2+; experiments repeated 4 times. The text has this: SPR was also used to study quantitatively the interaction of CIB2 with one of its established targets, namely the cytoplasmic domain of integrin α7B[3],[7]. Three different peptides were used in the interaction experiments. A peptide corresponding to the membrane proximal segment of the cytoplasmic domain of α7B integrin (α7B_M), another peptide with the same amino acid content, but randomized sequence (α7B_Scrb) and a peptide covering the C-terminal region of the cytoplasmic domain of α7B integrin (α7B_C). Three different approaches were used. In a first approach, His-tagged CIB2 was initially coupled to the surface of a His-cap sensor chip (see Methods), thus ensuring homogeneous site-specific orientation, and then blocked via standard amine coupling. […] The minor differences in the spectra at the level of the phenylalanine band can be ascribed to the TEV-protease recognition site (ENLYFQ), uncleaved in the His-tagged protein. […] In a third approach, we used the same low levels of CIB2 immobilization via amine coupling described in the experiments to probe CIB2 dimerization (100–200 RU) and flowed the three peptides.
The second approach (direct peptide immobilization) led to very low signals and unreproducible results and was not pursued any further. […] In spite of such differences, which might reflect both the heterogeneity of the surface and the different chemistry of immobilization, interaction results were consistent with one another. […] It should be noted that both Huang et al.[7] and Häger et al.[3] used peptides from mouse integrin, while we used the corresponding human sequences, which in the case of α7B_C lacks the tryptophan residue present in the mouse sequence. It is not uncommon that fluorescence spectroscopy interaction studies based on the peptide intrinsic fluorescence (CIB2 has no tryptophan residue) reveal some non-specific binding, especially when a highly hydrophobic protein such as CIB2 is the ligand. […] It cannot be excluded that a similar phenomenon occurred for murine α7B_C in the work by Häger et al.[3]. Our present results, based on accurate, label-free interaction studies clearly identify the region covered by α7B_M as the preferential binding site of CIB2 with α7B integrin.
SPR titrations of α7B_M over homogeneously coupled CIB2 (approach 1) gave very reproducible results and were performed both in the presence of 1 mM Mg^2+ and in the co-presence of 1 mM Mg^2+ and 2 mM Ca^2+. Peptide concentration was varied in the 230 nM–30 μM range. As anticipated, sensorgrams could not fit to a 1:1 binding model, and the kinetic model that better fit the data was a bivalent analyte model (see Methods), in which one α7B_M peptide could bind to two CIB2 molecules. According to this scheme, binding of the peptide to the first CIB2 molecule would direct the binding to the second one, thus resulting in two sets of kinetic constants.
Details of the protein and peptide immobilization procedures and experimental settings are elucidated in the Supplementary Information.
Kinetic data were fitted according to a bivalent analyte model, were a CIB2 monomer (L) can bind an α7B_M peptide (A), and the resulting complex (AL) can bind to a second CIB2 molecule (AL2), with all processes being possibly reversible, as follows: A+L→ka1ALAL→kd1A+LAL+L→ka2AL2AL2→kd2AL+L […]

Data set [3] addresses T1, human CIB2. Description: Cross-linking (DSBU)/MALDI-TOF-MS of CIB2 with α7B peptides. Format: binding. Particulars: 10 µM CIB2, 5, 10, 20 µM peptide, 50-fold DSBU; 20 mM HEPES pH 7.5, 1 mM Mg^2+, 2 mM Ca^2+, room temperature. As to the method: CIB2 samples were cross-linked with DSBU in the presence of peptide α7B_M or α7B_Scrb as described in ref.[14] Briefly, 10 µM CIB2 was diluted in 20 mM HEPES, pH 7.5, 1 mM DTT, 1 mM Mg^2+ and 2 mM Ca^2+ and incubated with increasing peptide concentrations (5 µM, 10 µM, and 20 µM) for 10 min at room temperature. Then, 50-fold molar excess of DSBU was added and the reactions were conducted for 20 min at room temperature. As control, CIB2 was treated with DSBU without peptide. Reactions were blocked by adding ammonium bicarbonate to a final concentration of 20 mM.
Cross-linked CIB2 samples were desalted via ZipTip C4 tips (Millipore) before MALDI-TOF-MS analysis (Ultraflex III MALDI-TOF/TOF mass spectrometer, Bruker Daltonik, Bremen) was conducted using sinapinic acid as matrix. For further details see Supplementary Methods. Baseline subtraction and spectra smoothing were performed. […]
Cross-linking reactions and Mass Spectrometry
Cross-linking reactions were performed with 10 µM CIB2 (in 20 mM HEPES pH 7.5, 150 mM KCl, 1 mM DTT, 1 mM Mg2+, 2 mM Ca2+) and increasing concentrations of peptides α7B_M and α7B_Scrb, ranging from 0.5:1 to 2:1 peptide:protein ratios. After incubating the samples for 10 minutes at room temperature, DSBU (freshly prepared solution, dissolved in neat DMSO) was added to the mixture at 50-fold molar excess compared to CIB2 concentration. As the final volume of the reaction mixture was 50 µL, 1 µL of 25 mM DSBU was added to each sample. After 20 minutes, the cross-linking reactions were quenched by adding ammonium bicarbonate to a final concentration of 20 mM. Samples were incubated for 10 minutes before SDS-PAGE analysis was performed (data not shown). Samples for MALDI-TOF-MS measurements were desalted by ZipTip C4 (Millipore) and desalted protein was eluted with 70% (v/v) acetonitrile / 1% (v/v) formic acid. Each sample was mixed with a saturated solution of sinapinic acid (in 50% (v/v) methanol / 0.1% (v/v) TFA) at 1:1 ratio and spotted onto the MALDI target. […]

The subject of data set [4] is CIB2. Particulars: peptide intrinsic fluorescence; cited from earlier work. An excerpt: In a recent study[8] we investigated the capability of CIB2 to bind Ca^2+ and Mg^2+ thereby switching to a functionally distinct structural state. By integrating several biochemical and biophysical techniques we could establish that in the absence of any cation CIB2 forms a molten globule state that essentially lacks tertiary structure. […] This is quite unusual for Ca^2+-sensor pro ... || The second approach (direct peptide immobilization) led to very low signals and unreproducible results and was not pursued any further. […] In spite of such differences, which might ... || Interaction with α7B occurs in the region proximal to the membrane and not close to the C-terminus of the cytosolic domain of the integrin. The recognition between CIB2 and the α7B target is kinetically favored in the presence of physiological Mg^2+ and in the absence of Ca^2+ and it might induce binding of another CIB2 molecule. […] However, CIB2 per se binds a single peptide as a monomer, and the complex could then induce CIB2 dimerization, ...

In data set [5] the target is integrin α7B peptide (Homo sapiens, UniProt Q13683, Mg2+). Description: SPR. A general note: Surface plasmon resonance follows binding to a sensor surface in real time, without labels.
The target of data set [6] is integrin α7B peptide (Homo sapiens, UniProt Q13683, Mg2+ and Ca2+). Description: SPR.
The test system of data set [7] is CIB2. The data set is described as follows: Near-UV circular dichroism. Particulars: 20-30 µM, 37 °C, EGTA, 1 mM Mg^2+, 2 mM Ca^2+; 20 mM HEPES pH 7.5. It is filed as physicochemical, human. Here is the method: CIB2 tertiary structure was investigated by using a Jasco J-710 spectropolarimeter equipped with a Peltier type cell holder as previously described. Briefly: near-UV (250–320 nm) CD spectra of 20 μM of sole CIB2 or CIB2/α7B_M complexes (1:1 and 1:2 ratios) were collected in the presence of 500 μM EGTA and after sequential additions of 1 mM Mg^2+ and 2 mM free Ca^2+. A 1 cm quartz cuvette was used, temperature was set at 37 °C, integration time and data pitch were set to 4 s and 1 nm, respectively. Each spectrum represents the average of 5 accumulations. […]
Figure S4: Structural comparison of His-CIB2 (A) and CIB2 (B). Near-UV CD spectra (250-320 nm) of 20-30 µM CIB2 were collected at 37°C in a quartz cuvette with 1 cm length path. Sequential additions of 500 µM EGTA (black), 1 mM Mg2+ (blue) and 2 mM Ca2+ (red) were performed. Near-UV CD spectra of the buffer (20 mM HEPES pH 7.5, 150 mM KCl, 1 mM DTT) was considered as blank and subtracted. Each spectrum represents the mean of 5 accumulations. Data were normalized according to the protein concentration and the number of residues (Molar Residue Ellipticity, MRE).
Figure S5: Near-UV CD spectra of CIB2 in the presence of different stoichiometric ratios of alpha7B_M peptide. Near-UV CD spectra (250-320nm) of 20 μM CIB2 in the absence of peptide (black lines) and in the presence of two different protein/peptide ratios (1:1 blue lines; 1:2 red lines) collected at 37°C in the presence of 500 μM EGTA (A) and after sequential additions of 1 mM Mg2+ (B) and 2 mM free Ca2+ (C). The spectrum of alpha7B_M peptide in the absence of CIB2 is shown in dashed grey lines. […]
(In general: Circular dichroism is the unequal absorption of left and right circularly polarised light.)

Data set [8] addresses T2, His-tagged CIB2, human (TEV protease recognition site and His tag kept) (human, UniProt O75838 1-187).
T2 construct: It was used only in the SPR experiments where CIB2 was captured by its His tag; also called His-CIB2
T2 sequence (looked up): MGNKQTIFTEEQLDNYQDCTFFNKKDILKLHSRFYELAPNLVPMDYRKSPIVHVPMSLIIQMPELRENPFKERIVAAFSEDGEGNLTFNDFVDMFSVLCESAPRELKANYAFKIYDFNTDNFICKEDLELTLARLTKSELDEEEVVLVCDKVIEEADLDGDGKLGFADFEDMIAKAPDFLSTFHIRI
Description: SPR; His-tagged CIB2 captured by its His tag on a His-cap chip, then blocked via amine coupling; peptides injected (7.5 µM; α7B_M titrated 230 nM-30 µM); 20 mM HEPES pH 7.5, 150 mM KCl, 1 mM DTT, 1 mM Mg2+, 2 mM Ca2+, 50 µM EDTA, 0.005% Tween; bivalent analyte model and steady state analysis; apparent constants. Particulars: both partners purified.

In data set [9] the target is T2, His-tagged CIB2, human (TEV protease …). The data set is described as follows: SPR; His-tagged CIB2 captured by its His tag on a His-cap chip, then blocked via amine coupling; α7B_M titrated 230 nM-30 µM in the presence of 1 mM Mg2+ without Ca2+; bivalent analyte model and steady state analysis; apparent constants. Particulars: both partners purified.
The target in data set [10] is T3, Calcium- and Integrin-Binding protein 2 (CIB2), human, untagged (human, UniProt O75838 1-187).
T3 construct: measured mass 21,767 Da by native ESI-MS; The printed mass (21.7 kDa) fits the whole protein; Residues may remain after TEV cleavage of the His tag; also called untagged CIB2; uncoupled CIB2
T3 sequence (looked up): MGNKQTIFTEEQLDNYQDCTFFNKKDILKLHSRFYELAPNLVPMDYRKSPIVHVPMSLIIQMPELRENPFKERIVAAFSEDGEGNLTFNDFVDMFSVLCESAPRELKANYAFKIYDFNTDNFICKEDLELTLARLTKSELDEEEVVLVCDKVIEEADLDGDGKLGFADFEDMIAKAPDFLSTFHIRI
Description: cross-linking; 10 µM CIB2 incubated with 5, 10 or 20 µM peptide, then 50-fold molar excess of DSBU for 20 min at room temperature; 20 mM HEPES pH 7.5, 1 mM DTT, 1 mM Mg2+, 2 mM Ca2+; read by MALDI-TOF-MS of the intact protein. Particulars: both partners purified.

Sequence of integrin αIIb peptide (Homo sapiens) (P08514 1014-1039): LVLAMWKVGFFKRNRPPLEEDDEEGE

As for CIB1 (from UniProt Q99828), the Kd in [1] is 12 µM.
Regarding KEFWGLHAKPRLKLMF [α7B_Scrb], the “SPR interaction with CIB2” value on human CIB2 [2] is “interact with low affinity”. The “CIB2/peptide complex formation, 1:1” value at human CIB2 [3] was “only minor signals for a 1:1 complex”. The “fluorescence titration of CIB2” value in the data set with CIB2 [4] is reported as “some non-specific signal”.
Turning to “LAADGHPELGPDGHPGPGTA [α7B_C, peptide covering the C-terminal region of the cytoplasmic domain of α7B integrin]”, the “SPR interaction with CIB2” value on human CIB2 [2] is recorded as “could not detect any interaction”.

B1: CIB2 (protein)
chain: MGNKQTIFTEEQLDNYQDCTFFNKKDILKLHSRFYELAPNLVPMDYRKSPIVHVPMSLIIQMPELRENPFKERIVAAFSEDGEGNLTFNDFVDMFSVLCESAPRELKANYAFKIYDFNTDNFICKEDLELTLARLTKSELDEEEVVLVCDKVIEEADLDGDGKLGFADFEDMIAKAPDFLSTFHIRI
For the molecule B1, the values for the Kd with integrin α7B peptide [5] and in the data set with integrin α7B peptide [6] were 11.6 µM and 25 µM, respectively.

B2: His-tagged CIB2: CIB2 with the TEV protease recognition site and the Histag kept (protein)
chain: MGNKQTIFTEEQLDNYQDCTFFNKKDILKLHSRFYELAPNLVPMDYRKSPIVHVPMSLIIQMPELRENPFKERIVAAFSEDGEGNLTFNDFVDMFSVLCESAPRELKANYAFKIYDFNTDNFICKEDLELTLARLTKSELDEEEVVLVCDKVIEEADLDGDGKLGFADFEDMIAKAPDFLSTFHIRI
modifications: left off: His tag, end not stated, kept | TEV protease recognition site (ENLYFQ), end not stated, kept
Turning to B2, the “near-UV CD, tertiary structure vs untagged CIB2” value in the data set with CIB2 [7] was “substantially the same tertiary structure of the untagged protein”.

B3: α7B_M peptide, membrane proximal segment of the cytoplasmic domain of α7B integrin (peptide)
peptide: Ac-LLLWKMGFFKRAKHPE-NH2
notes: integrin α7B, human, membrane proximal segment of the cytoplasmic domain; also called α7B peptide; source: synthetic peptide, bought: Genscript
On to B3, for which the Kd in data set [8] is 154 µM; in data set [9], 210 µM. Also, the “stoichiometry N” value in data set [10] is 1 peptide per CIB2 and 2 peptides per CIB2.
